Source: PMC6152312, “Structural Insight into the Recognition of r(UAG) by Musashi-1 RBD2, and Construction of a Model of Musashi-1 RBD1-2 Bound to the Minimum Target RNA”

Target: Msi1(109-200) (RBD2+) (mouse, UniProt Q61474 109-200)
Test: NMR titration (15N-1H HSQC); 1:1 stoichiometry, slow exchange; 20 mM MES pH 6.0, 100 mM NaCl, 1 mM DTT, 5% D2O, 298 K (NMR sample; titration at 80 uM protein)
Details: protein: recombinant; tags: N-terminal His6 cleaved by thrombin; extra GSHM at N-terminus; single strand

Sequence of Msi1(109-200) (RBD2+) (Q61474 109-200): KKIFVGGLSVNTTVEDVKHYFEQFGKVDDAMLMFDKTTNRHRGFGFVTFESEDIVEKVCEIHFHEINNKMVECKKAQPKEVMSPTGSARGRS

GUAGU (ssRNA) [r(GUAGU)]: binds.
